This is an account of results in patent US20260263521A1 (AIMED BIO, published 2026).

Positions count from the first letter of the chain named. Names and notes keep the numbering of the source.

In test [1] the target is T1, human CD200RLa (Sino Biological, 11620-H08H) recombinant protein (human, UniProt Q6Q8B3 24-239).
T1 construct: Bought; construct not described
T1 sequence (looked up): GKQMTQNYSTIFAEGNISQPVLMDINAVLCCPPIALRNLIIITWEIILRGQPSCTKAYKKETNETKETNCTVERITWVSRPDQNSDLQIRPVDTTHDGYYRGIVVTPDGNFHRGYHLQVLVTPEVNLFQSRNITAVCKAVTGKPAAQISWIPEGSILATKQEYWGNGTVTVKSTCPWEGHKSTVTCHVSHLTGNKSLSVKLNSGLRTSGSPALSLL
As to the kind of experiment: ELISA, plate-bound human CD200RLa (2 ug/mL), antibody 0.0192-300 nM, O.D 450 nm; panel 'recombinant human CD200RLa'. The method, then:
(§1) 96-well plates were coated with human CD200RLa (Sino Biological, 11620-H08H) and monkey CD200RLa (Sino Biological, 11576-C02H) recombinant proteins at a concentration of 2 μg/mL at 4° C. for 16 hours, and blocked with 3% skim milk for 1 hour. […] Color was developed with a TMB substrate solution (Thermo Scientific, 34029, 1-Step™ Ultra TMB-ELISA Substrate Solution). The color reaction was stopped with stop solution (Invitrogen, SS04, ELISA Stop Solution).
For orientation: In an ELISA, binding on a coated surface is turned into a signal by an enzyme label.

In test [2] the target is T2, mouse CD200R1 protein (R&D systems, 2554-CD) (mouse, UniProt Q9ES57 26-238, limits assumed).
T2 construct: Bought; construct not described
T2 sequence (looked up): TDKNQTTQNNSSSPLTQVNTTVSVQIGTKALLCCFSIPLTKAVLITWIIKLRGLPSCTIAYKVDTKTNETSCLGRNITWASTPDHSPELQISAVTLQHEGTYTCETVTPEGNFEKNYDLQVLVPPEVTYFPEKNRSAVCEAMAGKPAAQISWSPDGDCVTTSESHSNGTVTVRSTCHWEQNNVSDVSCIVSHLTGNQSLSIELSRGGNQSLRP
As to the kind of experiment: ELISA, plate-bound mouse CD200R1 (2 ug/mL), IgG 0.0192-300 nM, OD 450 nm; panel 'mouse CD200R1'. The method, then: 96-well plates were coated with human CD200R1 (R&D systems, 3414-CD) and mouse CD200R1 protein (R&D systems, 2554-CD) at a concentration of 2 μg/mL at 4° C. for 16 hours and then were blocked with 3% skim milk.
Color was developed with a TMB substrate solution (Thermo Scientific, 34029, 1-Step™ TMB-ELISA Ultra Substrate Solution). The color reaction was stopped with stop solution (Invitrogen, SS04, ELISA Stop Solution). The absorbance was measured at an optical density of 450 nm.

Test [3] has as its target T3, monkey CD200RLa (Sino Biological, 11576-C02H) recombinant protein (monkey (cyno), UniProt A0A2K5W6R0 30-246).
T3 construct: Bought; construct not described; also called cyno CD200RLa
T3 sequence: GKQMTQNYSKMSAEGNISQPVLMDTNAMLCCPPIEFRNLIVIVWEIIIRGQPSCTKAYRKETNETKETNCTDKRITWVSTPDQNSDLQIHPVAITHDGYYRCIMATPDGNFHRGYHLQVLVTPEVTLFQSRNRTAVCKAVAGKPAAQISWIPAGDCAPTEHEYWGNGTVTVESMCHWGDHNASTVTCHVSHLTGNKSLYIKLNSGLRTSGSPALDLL
As to the kind of experiment: ELISA, plate-bound monkey CD200RLa (2 ug/mL), antibody 0.0192-300 nM, O.D 450 nm; panel 'recombinant cynomolgus CD200RLa/Fc'. The method, then: as §1

Test [4] concerns the target T4, human CD200R1 expressed on cells (Jurkat-CD200R1, U937-CD200R1, HH cells) (human, UniProt Q8TD46 25-348).
T4 construct: whole, on cells; also called HH (CRL-2105); cell surface-expressed CD200R1
T4 sequence (looked up): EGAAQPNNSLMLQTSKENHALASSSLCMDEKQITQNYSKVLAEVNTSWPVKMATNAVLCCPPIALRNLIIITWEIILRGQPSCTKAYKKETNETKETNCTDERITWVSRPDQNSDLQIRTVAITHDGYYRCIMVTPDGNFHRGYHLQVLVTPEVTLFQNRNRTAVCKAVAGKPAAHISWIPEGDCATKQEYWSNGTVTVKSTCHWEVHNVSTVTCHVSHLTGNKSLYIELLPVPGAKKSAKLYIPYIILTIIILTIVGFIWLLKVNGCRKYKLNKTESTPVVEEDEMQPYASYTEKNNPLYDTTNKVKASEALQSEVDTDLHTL
Kind of test: flow cytometry, Jurkat-CD200R cells. The method, then:
Two additional wells were treated with 10 μl of mouse IgG1K (BD, #555751) and 5 μl of commercial CD200R1 antibody (Biolegend, #329308) to determine CD200R1 expression on the cell line surface for cell quality control.
The antibodies were serially diluted 10-fold from a maximum concentration of 100 nM to 10 nM, 1 nM, […], and were added to the pre-seeded cells. After reaction for 1 hour at 4° C., the cells were treated with Alexa-647 goat anti-human IgG (H+L) cross-adsorbed secondary antibody (Invitrogen, #A21445) and incubated for an additional 30 minutes at 4° C. After washing twice with FACS buffer, flow cytometry was performed using a Novocyte Flow cytometer (Agilent). Using GraphPad Prism software, the EC₅₀ was determined using a nonlinear graph model of log (agonist) vs. response-variable slope, as shown in Table 32.

Test [5] deals with T5, cynomolgus CD200R1 with dual His-tags (cynomolgus, UniProt G7NZT0 25-266).
T5 construct: Captured on the SPR chip by an anti-histidine antibody; also called CCD200R1-his; cCD200R1-his; not shown: dual His-tags
T5 sequence: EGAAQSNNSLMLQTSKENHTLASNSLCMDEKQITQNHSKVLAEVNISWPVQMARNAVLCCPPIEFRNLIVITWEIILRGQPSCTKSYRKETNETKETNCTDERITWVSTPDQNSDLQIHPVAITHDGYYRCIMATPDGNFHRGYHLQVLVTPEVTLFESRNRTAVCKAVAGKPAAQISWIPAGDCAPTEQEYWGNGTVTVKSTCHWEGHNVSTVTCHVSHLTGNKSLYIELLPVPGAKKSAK
Kind of test: SPR (Biacore CM5), His-tagged antigen captured by anti-histidine antibody, antibody as analyte, 1:1 Langmuir fit. The method, then: (§2) For the experiment, 30 μg/mL of an anti-histidine antibody was conjugated to a CM5 biacore chip via an amine bond while allowing to flow at 10 μl/min (10,000 RU). Then, 0.25 μg/mL of human or cynomolgus CD200R1 with dual His-tags was captured onto the completed chip for 60 seconds, and the binding ability of each antibody was analyzed. All experiments were performed by association of antibodies for 120 seconds and dissociation of antibodies for 600 seconds. The resulting graphs were fitted using a 1:1 Langmuir binding kinetic model (FIG. 16), and the kinetics of each antibody were calculated.

Test [6] deals with T6, human CD200R1 with dual His-tags (human, UniProt Q8TD46 25-265).
T6 construct: Captured on the SPR chip by an anti-histidine antibody; also called hCD200R1-his; not shown: dual His-tags
T6 sequence (looked up): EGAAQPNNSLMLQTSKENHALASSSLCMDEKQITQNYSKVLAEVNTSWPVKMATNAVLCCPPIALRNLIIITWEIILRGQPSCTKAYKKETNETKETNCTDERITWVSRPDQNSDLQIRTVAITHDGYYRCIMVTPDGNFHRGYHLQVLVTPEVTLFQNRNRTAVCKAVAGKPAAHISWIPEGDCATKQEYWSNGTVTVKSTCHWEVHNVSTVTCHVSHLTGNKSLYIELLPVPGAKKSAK
The test is described as above. The method, then:
as §2

The target in test [7] is T7, Hybrid CD200R1 MH (mouse;human, UniProt Q9ES57;Q8TD46).
T7 construct: single domain; mouse D1 over human D2; also called MH hybrid domain; P001 MH domain
T7 sequence (hybrid extracellular part, looked up): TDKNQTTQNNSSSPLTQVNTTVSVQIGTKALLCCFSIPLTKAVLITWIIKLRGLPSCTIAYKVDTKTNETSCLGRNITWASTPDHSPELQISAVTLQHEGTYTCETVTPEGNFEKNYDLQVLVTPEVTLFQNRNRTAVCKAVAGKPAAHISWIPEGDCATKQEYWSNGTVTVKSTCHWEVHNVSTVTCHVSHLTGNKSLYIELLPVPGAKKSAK
Kind of test: ELISA, plate-bound MH hybrid (1 ug/mL), antibody 0.0192-300 nM, O.D 450 nm; panel 'P001 MH domain-1)'. The method, then:
Recombinant proteins were produced from the extracellular Ig-like V-type domain and Ig-like C2-type domain of human CD200R1, each designed as human-mouse (HM hybrid domain) and mouse-human (MH hybrid domain) recombinant proteins. A 96-well plate was coated at a concentration of 1 μg/mL with each protein at 4° C. for 16 hours and blocked with 3% skim milk. […] After color development with TMB substrate solution (Thermo Scientific, 34029, 1-Step™ Ultra TMB-ELISA Substrate Solution), the color reaction was stopped with a stop solution (Invitrogen, SS04, ELISA Stop Solution), and the absorbance was measured at an O.D. of 450 nm.

B1: P001011 (IgG) (antibody, V domains shown)
VH: EVQLLESGGGLVQPGGSLRLSCAASGFTFSDYYMSWVRQAPGKGLEWVSWISSGGGSTYYADSVKGRFTISRDNSKNTLYLQMNSLGAEDTAVYYCARVRGTCNGTLCYYSNAMDVWGQGTLVTVSS
VL: QSVLTQPPSASGTPGQRVTISCTGSSSNIGSNDVSWYQQLPGTAPKLLIYDDNHRPSGVPDRFSGSKSGTSASLAISGLRSEDEADYYCGTWDASLNAYVFGGGTKLTVL
Regarding B1, the binding result in test [1], in test [2] and in test [3] was “no binding (tested: 300 nM)” in each case.

B2: P001009v2 (antibody, V domains shown)
VH: EVQLLESGGGLVQPGGSLRLSCAASGFTFSSYDMSWVRQAPGKGLEWVSWISHGGGSIYYADSVKGRFTISRDNSKNTLYLQMNSLRAEDTAVYYCARDAPAYSAPLFDYWGQGTLVTVSS
VL: QSVLTQPPSASGTPGQRVTISCSGSSSNIGNNAVNWYQQLPGTAPKLLIYYDKNRPSGVPDRFSGSKSGTSASLAISGLRSEDEADYYCAAWDRSLSGYVFGGGTKLTVL
notes: P001009 with LC S52K and D93R (Kabat); also called P019001v2
Regarding B2, in test [4], the EC50 (usually the concentration that produces a half-maximal response) was found to be 3.08 nM. In test [5], the affinity, expressed as Kd, was 0.0286 nM; the off-rate constant (koff) (commonly the first-order rate constant of dissociation) came to 8.08e-05 s⁻¹; the kon – broadly, the rate constant with which the complex forms – is 2.82e+06 M⁻¹ s⁻¹. Moreover, in test [6], binding was characterised by a dissociation constant (Kd) of 0.87 nM, the off-rate (koff) is 0.00654 s⁻¹ and the association rate constant (kon) worked out at 7.52e+06 M⁻¹ s⁻¹.

B3: P001005 (IgG) (antibody, V domains shown)
VH: EVQLLESGGGLVQPGGSLRLSCAASGFTFSGYDMSWVRQAPGKGLEWVSQIYPGNGSKYYADSVKGRFTISRDNSKNALYLQMNSLRAEDTAVYYCAKDLQTWTSRRFDYWGQGTLVTVSS
VL: B1 VL with T23S, S31N, S35N, D51S, D52N, N53S, E84G, A94D, A98G
As for B3, the binding result in test [7], in test [1] and in test [2] was “no binding (tested: 300 nM)” throughout.

B4: P001003 (IgG) (antibody, V domains shown)
VH: EVQLLESGGGLVQPGGSLRLSCAASGFTFSDYAMSWVRQAPGKGLEWVSAISHGGSSKYYADSVKGRFTISRDNSKNTLYLQMNSLRAEDTAVYYCARGPEVMLEFDYWGQGTLVTVSS
VL: B2 VL with S23T, N35T, Y51S, K53N, N54H, R94S
As to B4, the binding result in test [7], in test [1] and in test [2] was “no binding (tested: 300 nM)” in each case.

B5: P001007 (IgG) (antibody, V domains shown)
VH: EVQLLESGGGLVQPGGSLRLSCAASGFTFSNYDMSWVRQAPGKGLEWVSAISYDNGNTYYADSVKGRFTISRDNSKNTLYLQMNSLRAEDTAVYYCARNRAWFDYWGQGTLVTVSS
VL: B2 VL with A33N, N35Y, K53S, N54Q, R94A, S97N
With B5, the binding result in test [1] and in test [3] was “no binding (tested: 300 nM)” each time.

B6: P001009v3 (antibody, V domains shown)
VH: B2 VH
VL: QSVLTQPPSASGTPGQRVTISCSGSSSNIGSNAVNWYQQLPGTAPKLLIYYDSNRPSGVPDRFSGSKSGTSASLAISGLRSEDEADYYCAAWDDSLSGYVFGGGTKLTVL
notes: P001009 with LC N30S (Kabat); also called P019001v3
Consider B6, for which, in test [4], the concentration giving a half-maximal response (EC50) stood at 0.33 nM. In addition, in test [5], binding was put at a Kd of 1.15 nM, the koff amounted to 7.09 s⁻¹ and the on-rate constant (kon) came to 6.14e+09 M⁻¹ s⁻¹. Besides, in test [6], binding was put at a Kd of 0.109 nM, the koff is 0.000452 s⁻¹ and the on-rate (kon) amounted to 4.16e+06 M⁻¹ s⁻¹.

B7: P001009v4 (antibody, V domains shown)
VH: B2 VH
VL: B2 VL with N32K, K53S, R94D
notes: P001009 with LC N31K (Kabat); also called P019001v4
The molecule B7 displayed an EC50 in test [4] of 2.37 nM. Besides, in test [5], the dissociation constant (Kd) (in general, a measure of binding affinity in units of concentration) amounted to 0.0822 nM; the koff came out at 0.000305 s⁻¹; the kon came to 3.71e+06 M⁻¹ s⁻¹. For the same molecule, in test [6], the affinity, expressed as Kd, was 1.04 nM; the koff was 0.007 s⁻¹; the on-rate constant (kon) amounted to 6.74e+06 M⁻¹ s⁻¹.
